Measurements reported in US20200170258A1.

Tests used:
[1] = molecular target: FLS2 receptor of Arabidopsis thaliana (Arabidopsis thaliana) (UniProt Q9FL28); experiment: cell-based or functional assay
[2] = molecular target: … SENSING 2 (FLS2) of soybean (soybean); experiment: cell-based or functional assay

Chain of FLS2 receptor of Arabidopsis thaliana (Arabidopsis thaliana) (Q9FL28 24-1173): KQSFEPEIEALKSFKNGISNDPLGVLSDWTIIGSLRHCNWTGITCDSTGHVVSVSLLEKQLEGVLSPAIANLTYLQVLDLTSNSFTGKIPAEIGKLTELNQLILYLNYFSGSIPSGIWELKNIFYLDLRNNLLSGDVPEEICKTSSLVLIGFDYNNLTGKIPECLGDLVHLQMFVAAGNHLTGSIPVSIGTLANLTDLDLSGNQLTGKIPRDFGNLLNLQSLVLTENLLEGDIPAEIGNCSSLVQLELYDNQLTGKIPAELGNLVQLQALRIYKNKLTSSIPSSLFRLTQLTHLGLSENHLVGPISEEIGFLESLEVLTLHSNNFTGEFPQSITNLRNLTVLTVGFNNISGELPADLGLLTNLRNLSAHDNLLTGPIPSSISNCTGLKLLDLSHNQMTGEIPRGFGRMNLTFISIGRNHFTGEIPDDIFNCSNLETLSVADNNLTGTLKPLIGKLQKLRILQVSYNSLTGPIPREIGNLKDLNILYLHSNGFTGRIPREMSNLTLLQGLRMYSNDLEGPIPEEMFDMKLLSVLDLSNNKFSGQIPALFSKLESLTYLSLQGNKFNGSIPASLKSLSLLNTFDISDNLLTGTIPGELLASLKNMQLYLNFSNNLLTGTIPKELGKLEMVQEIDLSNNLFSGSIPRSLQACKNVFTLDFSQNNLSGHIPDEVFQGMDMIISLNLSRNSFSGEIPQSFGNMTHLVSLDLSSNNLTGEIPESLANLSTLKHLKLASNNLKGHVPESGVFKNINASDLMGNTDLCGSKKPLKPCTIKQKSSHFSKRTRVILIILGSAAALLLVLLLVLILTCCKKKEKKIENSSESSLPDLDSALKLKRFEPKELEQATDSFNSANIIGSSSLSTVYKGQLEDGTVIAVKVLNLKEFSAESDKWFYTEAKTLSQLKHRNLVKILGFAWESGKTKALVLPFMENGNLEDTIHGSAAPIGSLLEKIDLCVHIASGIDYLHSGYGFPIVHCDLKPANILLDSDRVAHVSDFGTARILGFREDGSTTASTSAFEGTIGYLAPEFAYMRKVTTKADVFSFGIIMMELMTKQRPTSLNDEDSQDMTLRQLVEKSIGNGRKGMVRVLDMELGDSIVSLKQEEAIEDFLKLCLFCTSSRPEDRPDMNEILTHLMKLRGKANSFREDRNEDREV

Binder | ROS activity in Arabidopsis leaf tissue, Average RLU value, 100 nM [1] | ROS activity in Arabidopsis leaf tissue, fold increase over mock treatment, 100 nM [1] | % Activity (compared to unmodified Bt.4Q7Flg22), soybean ROS assay [2]
DRLSSGKRINSASDDAAGLAIA [Bt.4Q7Flg22] | 258000 RLU | 3.1 fold | 100%
Ac-DRLSSGKRINSASDDAAGLAIA-NH2 [Bt.4Q7Flg22 Mod-1] | – | – | 106%
